Changes are numbered by the printed parent chain.
T1: virus-like particles (VLPs) of BK polyomavirus VP-1 protein, serotype Ia (BK virus (BKPyV), serotype Ia, UniProt P03088 1-361)
T1 construct: self-assembled native VLPs coated on ELISA plates; also called VLP Ia; BKV VP-1, serotype Ia
T1 chain: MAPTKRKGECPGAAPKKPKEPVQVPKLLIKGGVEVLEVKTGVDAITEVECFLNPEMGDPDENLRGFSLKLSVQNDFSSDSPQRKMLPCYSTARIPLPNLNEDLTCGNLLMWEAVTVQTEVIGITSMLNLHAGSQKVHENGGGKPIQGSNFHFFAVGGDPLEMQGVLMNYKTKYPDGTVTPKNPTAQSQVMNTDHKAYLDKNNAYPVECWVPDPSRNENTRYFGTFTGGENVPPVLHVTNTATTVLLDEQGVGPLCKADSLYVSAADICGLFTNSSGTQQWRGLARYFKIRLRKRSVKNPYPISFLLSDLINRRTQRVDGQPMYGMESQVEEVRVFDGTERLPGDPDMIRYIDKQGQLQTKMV

T2: virus-like particles (VLPs) of BK polyomavirus VP-1 protein, serotype Ib2 (BK virus (BKPyV), serotype Ib2, PA …, UniProt P03088 1-362)
T2 construct: native VLPs; also the immunogen; also called VLP Ib2; BK Ib2
T2 chain: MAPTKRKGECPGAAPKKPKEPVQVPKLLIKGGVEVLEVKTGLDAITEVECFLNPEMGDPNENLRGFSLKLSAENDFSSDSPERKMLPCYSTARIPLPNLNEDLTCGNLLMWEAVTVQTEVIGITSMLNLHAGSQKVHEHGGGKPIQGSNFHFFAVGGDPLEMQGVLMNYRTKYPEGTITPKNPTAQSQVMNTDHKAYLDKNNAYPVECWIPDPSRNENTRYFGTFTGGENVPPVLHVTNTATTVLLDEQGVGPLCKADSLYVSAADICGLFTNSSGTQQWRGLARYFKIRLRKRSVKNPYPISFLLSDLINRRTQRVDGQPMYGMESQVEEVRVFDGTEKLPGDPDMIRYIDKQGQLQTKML

T3: virus-like particles (VLPs) of BK polyomavirus VP-1 protein, serotype II (BK virus (BKPyV), serotype II, UniProt P14996 1-362)
T3 construct: native VLPs; also called VLP II
T3 chain: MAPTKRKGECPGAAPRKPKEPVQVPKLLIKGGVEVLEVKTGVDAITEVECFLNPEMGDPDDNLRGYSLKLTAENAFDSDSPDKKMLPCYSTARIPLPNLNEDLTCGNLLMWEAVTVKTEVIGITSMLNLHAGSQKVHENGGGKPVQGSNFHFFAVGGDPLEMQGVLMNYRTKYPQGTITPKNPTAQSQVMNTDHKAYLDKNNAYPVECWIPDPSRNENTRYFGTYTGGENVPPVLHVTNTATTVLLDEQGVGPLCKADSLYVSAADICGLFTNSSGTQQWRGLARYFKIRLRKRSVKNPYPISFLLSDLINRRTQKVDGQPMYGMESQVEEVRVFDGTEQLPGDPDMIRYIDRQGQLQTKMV

T4: virus-like particles (VLPs) of BK polyomavirus VP-1 protein, serotype III (BK virus (BKPyV), serotype III, UniProt P14996 1-362)
T4 construct: native VLPs; also called VLP III
T4 chain: T3 chain with R16K, N62H, L68Q, K69H, R215K

T5: virus-like particles (VLPs) of BK polyomavirus VP-1 protein, serotype IV (BK virus (BKPyV), serotype IV, UniProt P14996 1-362)
T5 construct: native VLPs; also called VLP IV
T5 chain: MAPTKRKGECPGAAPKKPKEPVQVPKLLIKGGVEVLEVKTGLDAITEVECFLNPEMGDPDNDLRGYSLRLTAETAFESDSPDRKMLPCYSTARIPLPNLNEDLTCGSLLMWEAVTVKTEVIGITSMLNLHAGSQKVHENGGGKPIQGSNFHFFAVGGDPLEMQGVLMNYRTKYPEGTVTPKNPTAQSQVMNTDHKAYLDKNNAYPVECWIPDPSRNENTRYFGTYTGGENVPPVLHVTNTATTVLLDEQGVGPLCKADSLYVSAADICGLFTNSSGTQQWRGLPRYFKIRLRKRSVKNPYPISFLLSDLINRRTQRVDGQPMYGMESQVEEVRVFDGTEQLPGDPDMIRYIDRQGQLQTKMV

B1: monoclonal antibody ‘F6’ secreted by clone BK6A2F6 (antibody)
heavy: EVQLQQSGPELVKPGASVKISCKASGYSFTGYFMNWVKQSHGKSLEWIGRINPYNGDTFYNQKFKGKATLTVDKSSSTAHMELLSLTSEDSAVYYCGSYYYGDYFDYWGQGTTLTVSSAKTTPPSVYPLAPGSAAQTNSMVTLGCLVKGYFPEPVTVTWNSGSLSSGVHTFPAVLQSDLYTLSSSVTVPSSTWPSETVTCNVAHPASSTKVDKKIVPRDCGCKPCICTVPEVSSVFIFPPKPKDVLTITLTPKVTCVVVDISKDDPEVQFSWFVDDVEVHTAQTQPREEQFNSTFRSVSELPIMHQDWLNGKEFKCRVNSAAFPAPIEKTISKTKGRPKAPQVYTIPPPKEQMAKDKVSLTCMITDFFPEDITVEWQWNGQPAENYKNTQPIMDTDGSYFVYSKLNVQKSNWEAGNTFTCSVLHEGLHNHHTEKSLSHSPGK
light: […]
B2: monoclonal antibody ‘H6’ secreted by clone BK6A2H6 (antibody, V domains shown)
VH: EVQLQQSGPELVKPGASVKISCKASGYSFTGYFMNWVKQSHGKSLEWIGRINPYNGDTFYNQKFKGKATLTVDKSSSTAHMELLSLTSEDSAVYYCGSYYYGDYFDYWGQGTTLTVSS
VL: SIVMTQIPKFLLVSEGDRVTITCKASQSVSNDVAWYQQKSGQSPKLLIYYASNRYTGVPDRFTGSGYGTDFTFTISTVQAEDLAVYFCQQDYSSPLTFGAGTKLELKR
B3: monoclonal antibody ‘18A2’ derived from hybridoma 18A2 (antibody, V domains shown)
VH: DVQLQESGPGLVKPSQSLSLTCSVTGYSITSGYYWNWIRQFPGNKLEWMGYISYDGSNNYNPSLKNRISITRDTSKNQFFLKLNSVTTEDTATYYCARWEGTTDYWGQGTTLTVSS
VL: not shown
notes: Mouse hybridoma antibody

What was measured:
[1] = target: T1, virus-like particles (VLPs) of BK …; test: ELISA on coated VLP;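 also: hybridoma culture supernatants (mouse antibodies) tested on wells coated with 1 µg/mL VLPs, peroxidase anti-mouse detection with OPD, background from PBS-coated control wells subtracted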
Description: (§1) To do this, the VLPs produced were deposited at a concentration of 1 μg/mL in PBS and incubated overnight at +4° C. The wells were then blocked for 1 h at +37° C. with a PBS/FCS (phosphate-buffered saline/fetal calf serum) mixture. After dilution in a dilution buffer containing FCS, PBS and Tween® 20, the various hybridoma culture supernatants were added for 1 h at +37° C. The wells were washed four times in a row with Wash Buffer and a secondary anti-mouse antibody coupled to peroxidase was added to the 1:2000 dilution for 1 h at +37° C. The wells were washed four more times and the substrate (OPD (ortho phenylene diamine)+H₂O₂) was added for 30 min at room temperature. A stop solution (H₂SO₄ 4N) was then added and each well was read by measuring the absorbance at 492 nm with a spectrophotometer. The value obtained for the average of the control wells (PBS in the first step) is subtracted from the optical density values obtained for each well.

[2] = target: T2, virus-like particles (VLPs) of BK …; test: ELISA on coated VLP;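 also: hybridoma culture supernatants (mouse antibodies) tested on wells coated with 1 µg/mL VLPs, peroxidase anti-mouse detection with OPD, background from PBS-coated control wells subtracted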
Description: as §1

[3] = target: T3, virus-like particles (VLPs) of BK …; test: ELISA on coated VLP;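 also: hybridoma culture supernatants (mouse antibodies) tested on wells coated with 1 µg/mL VLPs, peroxidase anti-mouse detection with OPD, background from PBS-coated control wells subtracted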
Description: as §1

[4] = target: T4, virus-like particles (VLPs) of BK …; test: ELISA on coated VLP;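 also: hybridoma culture supernatants (mouse antibodies) tested on wells coated with 1 µg/mL VLPs, peroxidase anti-mouse detection with OPD, background from PBS-coated control wells subtracted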
Description: as §1

[5] = target: T5, virus-like particles (VLPs) of BK …; test: ELISA on coated VLP
Description: as §1

[6] = target: T6, virus-like particles (VLPs) of JC polyomavirus VP-1 protein (JC virus (JCPyV), UniProt P03089 1-354, Assembled into virus-like particles (many VP-1 copies); the letters give one VP-1 chain.); test: ELISA on coated JCPyV VLPs
T6 construct: Expressed in insect cells by baculovirus; VLPs coated on ELISA plates; also called JCPyV VLPs; JCPyV

[7] = target: T3, virus-like particles (VLPs) of BK …; test: ELISA on coated VLP; supernatant 1/5 120
Description: as §1

[8] = target: T5, virus-like particles (VLPs) of BK …; test: ELISA on coated VLP; supernatant 1/5 120
Description: as §1

[9] = target: T2, virus-like particles (VLPs) of BK …; test: ELISA on coated VLP (detection limit OD>0.5)
Description: as §1

[10] = target: T6, virus-like particles (VLPs) of JC …; test: ELISA on coated VLP (detection limit OD>0.5)
Description: as §1

T6 sequence (P03089 whole entry): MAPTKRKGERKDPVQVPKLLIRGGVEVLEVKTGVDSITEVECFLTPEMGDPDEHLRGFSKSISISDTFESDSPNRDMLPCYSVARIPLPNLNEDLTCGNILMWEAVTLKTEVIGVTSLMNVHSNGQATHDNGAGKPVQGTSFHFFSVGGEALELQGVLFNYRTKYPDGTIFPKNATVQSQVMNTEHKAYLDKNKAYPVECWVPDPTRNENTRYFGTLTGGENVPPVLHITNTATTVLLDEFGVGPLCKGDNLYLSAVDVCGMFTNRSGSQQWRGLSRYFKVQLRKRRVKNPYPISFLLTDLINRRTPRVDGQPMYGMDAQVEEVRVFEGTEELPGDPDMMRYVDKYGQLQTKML

Row | Binder | OD 492 nm [1] | OD 492 nm [2] | OD 492 nm [3] | OD 492 nm [4] | OD 492 nm [5] | binding result [6] | OD 492 nm [7] | OD 492 nm [8] | OD 492 nm [9] | OD 492 nm [10]
1 | B1 | 3.23 OD | 2.89 OD | 1.65 OD | 0.42 OD | 3.16 OD | no binding (tested: detection limit: OD>0.5) | 0.07 OD | 0.77 OD | 3 OD | 0.028 OD
2 | B2 | 3.06 OD | 3.19 OD | 0.86 OD | 0.481 OD | 3.21 OD | no binding (tested: detection limit: OD>0.5) | 0.05 OD | 0.26 OD | 2.97 OD | 0.013 OD
3 | B3 | 2.22 OD | 3.02 OD | 1.05 OD | 0.763 OD | 1.22 OD | no binding (tested: detection limit: OD>0.5) |  |  | 0.565 OD | 0.116 OD
